Results as given in US20230126689A1 (GO THERAPEUTICS, published 2023).
Ends that are not written are not given here. * marks the point of attachment. αGalNAc = CC(=O)N[C@@H]1[C@@H](O)[C@@H](O)[C@@H](CO)O[C@@H]1*

T1: CD44v6 glycopeptide … with O-linked GalNAc on threonine 5 and serine 12 (human, not fully specified (residue 12))
T1 construct: Synthetic 19-residue glycopeptide made by FMOC synthesis; also called CD44v6-Tn(S + T); Tn-glycosylated CD44v6 glycopeptide
T1 peptide: GYRQT(αGalNAc)PKEDSHSTTGTAAA

T2: CD44v6 peptide glycoform CD44v6-Tn(S) (human, not fully specified (residue 12); also: GalNAc (Tn) on serine only, position not given here)
T2 construct: That the serine is Ser 12 is inferred from the two-site glycopeptide
T2 peptide: GYRQTPKEDSHSTTGTAAA


Experiments:
[1] = biological target: T1, CD44v6 glycopeptide … with O-linked …; experiment: BLI (Octet), apparent affinity with avidity factored in
[2] = biological target: T1, CD44v6 glycopeptide … with O-linked …; experiment: SPR (Biacore); Biacore, not Octet
[3] = biological target: T2, CD44v6 peptide glycoform CD44v6-Tn(S); experiment: BLI (Octet); Octet; Tn(S) glycoform
Tn-glycosylated MUC1 = biological target: T3, Tn-glycosylated MUC1 (UniProt P15941 138-197, limits assumed, Tn (GalNAc) glycosylated; sites not stated for the material used); experiment: Biacore (surface plasmon resonance); row MUC1-Tn, column Affinity (Biacore)
T3 construct: also called MUC1-Tn

[4] = biological target: T1, CD44v6 glycopeptide … with O-linked …; experiment: hybridoma screening (ELISA, flow cytometry, immunofluorescence)

T3 sequence (P15941 138-197 limits assumed): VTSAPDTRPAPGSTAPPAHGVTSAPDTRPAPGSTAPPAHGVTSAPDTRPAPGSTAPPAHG

Binder | binding result [4] | further results
4C8 monoclonal antibody (antibody, V domains shown, Murine hybridoma antibody from Balb/c mice immunised with the KLH-conjugated CD44v6 glycopeptide; It was detected with anti-mouse IgG Fc-gamma, and used as purified mAb or as hybridoma supernatant; also called 4C8 mAb; mAb 4C8) VH: QVQLQQPGSELVRPGASVKLSCKASGYTFTSYWMHWVKQRPGQGLEWIGNIYPRSGTTNYDGYFKSKATLTVDTSSSTAYMQLSSLTSEDSAVYFCTRSGYDYPFVYWGQGTLVTVSA VL: QAVVTQESALTTSPGETVTLTCRTSTGAVSIRNYANWVQEKPDHLFTGLIGGTNNRAPGVPARFSGSLIGDKAALTITGAQPEDEAIYFCALLYSNYWVFGGGTKLTVL |  | Kd [1]: 7.9 nM; Kd [2]: 128 nM; Kd [3]: 6.4 nM; Kd (Tn-glycosylated MUC1): > 400 nM
2B2 monoclonal antibody (antibody, V domains shown, Murine hybridoma antibody) VH: EVQLVESGGGLVKPGGSLKLSCAASGFTFSSYAMSWVRQSPERRLEWVAEISSGGSYTYYPDTVTGRFTISRDNAKNTLYLEMSSLRSEDTAMYYCARTVGEDWYFDVWGAGTTVTVSS VL: DIQMTQTTSSLSASLGDRVTISCRASQDISHYLNWYQQKPDGAVKLLIYSTSRLHSGVPSRFSGSGSGTDYSLTISNLEQEDIATYFCQQGYTLPFTFGSGTKLEIK | binds | 
18G9 monoclonal antibody (antibody, V domains shown, Murine hybridoma antibody) VH: DVQLVESGGGLVQPGGSRKLSCAASGFTFSSFGMHWVRQAPEKGLEWVAYISSGSSTIYYADTVKGRFTISRDNPKNTLFLQMTSLRSEDTAMYYCARGSYRAMDYWGQGTSVTVSS VL: QIVLTQSPALMSASPGEKVTMTCSASSSVNYMFWYQQKPRSSPKPWIYLTSNLASGVPARFSGSGSGTSYSLTISSMEAEDAATYYCQLWSSNPFTFGSGTKLEIK | binds | 
1D12 monoclonal antibody (antibody, V domains shown, Murine hybridoma antibody) VH: DVQLVESGGGLVQPGGSRKLSCAASGFTFSSFGIHWVRQAPEKGLEWVAYISSGSSTIYYADTVKGRFTISRDNPKNTLFLQMTSLRSEDTAMYYCARGSKVVAKSRGYWYFDVWGAGTTVTVSS VL: DVVVTQTPLFLPVSFGDQVSISCRSSQSLANNYGITYLSWYLHRPGQSPQLLIYGISNRFSGVPDRFSGSGSGTDFTLKISTIKPEDLGMYYCLQGTHQPWTFGGGTKLEIK | binds | 
10H4 monoclonal antibody (antibody, V domains shown, Rabbit antibody) VH: QSLEESGGRLVTPGTPLTLTCTASGFTINTYHMGWFRQAPGKGLQYIGIVSHDVGTYYATWAKGRFTISKTSSTTVDLRMPSPTTEDTATYICARGPGYWTFNLWGQGTLVTVSS VL: AQVLTQTPASVSAAVGGTVTINCQASQSVYNNNQLSWYQQKPGQPLKQLIYKASTLASGVPSRFKGSGSGSQFTLTISDLECDDAATYFCAGGYKGDIHPFGGGTEVVVK | binds | 
